We go through 41 sequences from the nanobody polyreactivity screen of Harvey et al. (2022).

The series is described as follows: yeast display, Sf9 membrane polyspecificity reagent, FACS + sequencing; frameworks hold sequencing errors. The method, boiled down:
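Genes from sorted yeast were amplified by colony PCR, read by MiSeq 2 × 250 sequencing and filtered on CDR length. These cells carried a synthetic nanobody library in Saccharomyces cerevisiae BJ5465 and were sorted by FACS into low and high (top ~1%) gates on anti-HA and streptavidin fluorescence. Polyreactivity is labelled according to the gate of origin.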
With “QVQLVESGRGLVQAGGSLRLSCAASGSIFKYYAMGWYRQAPGKERELVAAITSGGSTSYADSVKGRFTISRDNAKNTVYLQMNSLKPEDTAVYYCAAELRSWRSYGSVWRWYYYWGQGTQVTVSS”, the “polyreactivity (PSR sort gate)” value is reported as “high polyreactivity”.
As for “QVQLVESGGGLVQAGGSLRLSCAASGRTFRYYALGWYRQAPGKERELVAAITSSGDSTYYADSVKGRFTISRDNAKNTVYLQMHSLKQEDTAVYYCADGQPLFYDAEYGYWGQGTQVTVSS”, the entry is “low polyreactivity”; as for “QGQLVESGGVLVQGGGSLRLSCAASGSIFVYNAMGWSRQAPGKERELVAANTSSGASTYYADSVKGRFPISRDNAKNTVYLQMISLNPEDTDVYYCNAGADSTVGNYVTSFSQYDFWGQGTQVTVSS”, “low polyreactivity”; as for “QVQLVESGGGLVQAGGSLRLSCAASGSIFFSYAMGWYRQAPGKERELVAAIDYSGGGTYYADSVKGRFTISRDNAKNTVYLQMNSLKPEDTAVYYCNSDTEVWADTFISYRALNYWGQGTQVTVSS”, “low polyreactivity”.
As for “QVQLVESGGGLVQAGGSLRISCAASGSTFKRNVMGWYRQAPGKERELVAAISRTDGRTYYADSVKGRFTISRDNAKNSVYLEMNSLKPEDTAVYYCAATTGHRTYRYYYWGHGTQVTVSS”, the entry is “high polyreactivity”.
As for “QVQLVESGGGLVQAGGSLRLSCAASGSTFGPYTMGWKRPAPGKERELVATISSGGSTYYADSVKGRFTISRDNAKNTVYLQLNCLKPEDTAVYSCAKDFWYRSYDYWGQGTQVTLSS”, the entry is “low polyreactivity”; as for “QVQLVESGGGLVQAGGSLRLSCAASGFIFFVNAMGWSRQAPGKEREFVATITGSGGSTYYADSVKGRFTISRDNAKNTVYLQMNSLKPEDTAVYYCAADSLTPKSASDYWGQGTQVTVSS”, “low polyreactivity”.
“QVQLVESGGGLVQAGGSLRLSCAASGFIFRTYAMGWYRQEPGKERELVAAITYSAGSTYYADSVKGRFTISRDNAKNTVYLQMNSLKPEDTADYYCNVRKTWYGYSVTGRYDYWGQGTQVTVSS”: the “polyreactivity (PSR sort gate)” value is given as “low polyreactivity”.
With “QVQLVESGGGLVQAGGSLRLSCAASGRNFLVYAMGWYRQAPGKERELVAAITYSDGSTYYADSVKGRFTISRDNAKNTVYLQMNSLKPEDTAVYYCAADSSTFPSDYYWGKGTQVTVSS”, the “polyreactivity (PSR sort gate)” value was “low polyreactivity”.
On to “QVQLVESGGGLVQAGGSLRLSCAASGSIFGYYAMGWYRQAPGKERELVAAISYRGGSTYYADSVKGRFTISRDNAKNTVYLQMNSLKPEDTAVYYCNAPFLGAHHYGYEYWGQGTQVTVSS”, for which the “polyreactivity (PSR sort gate)” value was “high polyreactivity”.
The same measure for “QVQLVESGGGLLQAGGSLSLSCAASGFTFNRNAMGWYRQAPGKERELVAAISWSGGSTYYADSVKGRFTISRDNAKNTVYLQMNSLKPEDTAVYYCAKGYRRVYSMDWGQGTQVTVSS”: “low polyreactivity”.
The same measure for “QVQLVESGGGLVQAGGSLRLSCAASGSTFYTYVMGWYRQAPGKERELVAAISSGGGNTYYADTVTGRFTISRDHGKNTVYLQMNSLKPEDTAVYYCAAETFRWSDYDYWGQGTQVTVSS”: “high polyreactivity”; for “QVQLVESGGGLVQAGGSLRLTCAASGRIFYYYAMAWYRQAPGKEMELVAAIRRGGFTYYADSVKGRFTISRDNAKNTVYLQMYSLKQEDTAVYYCAAGVSKPNGYYYLRGYERGYWGQGTQVTVSS”: “high polyreactivity”.
The same measure for “QVQLVESGGGLVQAGGSLRLSCAASGITFYSYAMGWYRQAPGKERELVAAISSSGTTYYADSVKGRFTISRDNAKNTVYLQMNSLKPEDTAVYYCAVDSYYKYDYWGQGTQVTVSS”: “low polyreactivity”; for “QVQLVESGGGLVQAGGSLRLSCAASGGIFRYYAMGWYRQAPGKERELVARISRRAGSTYYADSVKGRFTISRDNAKNTVYLQMNSLKPEDTAVYYCNKVGGTLGYDYWGQGTQVTVSS”: “high polyreactivity”; for “QVQLVESGGGLVQAGGSLRLSCAASGRIFQDYAMGWYRQPPGKERELVAAISSSGVRTYYADSVKGRFTISRDNAKNTVYVQMNSLKPEDTAVYYCATGYIFRYRQSAYVYWGQGTQVTVSS”: “high polyreactivity”.
On to “QVQLVESGGGLVQAGGSLRLSCAASGNIFWWNAMGWYRQAPGKERELVAAITSDSTTYYADSVKGRFTISRDNAKNTVYLQMNSLKPEDTAVYYCNTVAYLRRFDKWGMNYWGQGTQVTVSS”, for which the “polyreactivity (PSR sort gate)” value was “low polyreactivity”.
With “QVQLVESAGGLVQARGSLRLSCAASGRIFVPYAMGWYRQAPGKERELVAVISRGGSTYYADSVKGRFTISRDNAKNTVYLQMNSLKPEDTAVYYCAVASKLALQPWYDYWGQGTQVTVSS”, the “polyreactivity (PSR sort gate)” value was “high polyreactivity”.
As for “QVQLVESGGGLVQAGGSLRLSCAASGFTFRYYAMGWYRQAPGKERELVAAISWSGGRTYYADSVKGRFTISRDNAKNTVYLQMNSLKPEDTAVYYCAADGYPYFYGDFDYWGQGTQVTVSS”, the entry is “high polyreactivity”; as for “QVQLVESGGGLVQAGGSLRLSCAASGFIFETYVMGWYRQAPGKVRALVAAISGGGSTYYADSVKGRFTMSRDNAKNTVYLQMNSLKPEDTAVYYCAAGSWRARSYYHYYYWGQGTQVTVSS”, “high polyreactivity”; as for “QVQLVESGGGLVQAGGSLRLSCAASGITIDYYAMGWYRQAPGKERELVAAISSVGNTNYADSVKGRFTISRDNAKNTVYLQMNSLKPEDTAVYYCATYAYYLYHVGTAYDYWGQGTQVTVSS”, “high polyreactivity”.
Regarding “QVQLVESGGGLVQAGGSLRISCAASGFIFFYAMGWYRQAPGKERELVASIDSGVSTDYADSVKGRLTISRDNAKNTVYLQMNSLKPEDNAVYYCAADPWSSLNYDYWGQGTQVTVSS”, the “polyreactivity (PSR sort gate)” value is “low polyreactivity”.
For the sequence “QVQLVESGGGLVQAGGSLRLSCAASGRIFQYNAMGWYRQAPGKDRELVAAIRRGGGSTYYADSVKGRFTISRDNAKNTVYLQMNSLKPEDTAVYYCAARRKRVSFYPEYDYWGQGTQVTVSS”, the “polyreactivity (PSR sort gate)” value is given as “low polyreactivity”.
Regarding “QVQLVESGGGLVQAGGSLRLSCAASGSTFGPYAMGWYRQAPGKERELVATITRNGGSTYYADSVKGRFTISRDNAKNTVYLQMNSLKPEDTAVYYCNAEGRWSSFTQRMDYWGQGTQVTVSS”, the “polyreactivity (PSR sort gate)” value was “low polyreactivity”.
As for “QVQLVESGGGLVQAGGSLRLSCAASGLIFADYTMGWYRQAPGKERELVAVITDGDSTYYADSVKGRFTISRDNAKNTVYLQMNSLKPEDTAVYYCAAELDGSNYTLDYWGLGTQVTVSS”, the entry is “low polyreactivity”; as for “QVQLVESGGGLVQAGGSFRLSCAASGSIFVVYAMGWYRQAPGKERELVAAITSGGSTYYADSVKGRFTISRDNAKNTVYLQMNSLKPEDTAVYYCNAKRTGPWFLHVPVYYWGQGTQVTVSS”, “low polyreactivity”; as for “QVQLVESGGGLVQAGGSLRLSCAASGSTFVYYGMGWYRQAPGKERELVAAITDIGDSTNYADSVKGRFTISRDNAKNTVYLQMNSLKPEDTAVYYCAASGRSVPYYGSPRNDYWGQGTQVTVSS”, “low polyreactivity”.
The same measure for “QVQLVESGGGLVQAGGSLRLSCAASGITFYWYTMGWYRQAPGKERELVADIDGDGGSTYYADSVKGRFTISRDNAKNTVYLQMNSLKPEDTAVYYCAAQVWPWGYDYWGQGTQVTVSS”: “high polyreactivity”; for “QVQLVDSGGGLVQAGGSLRLSCAASGFKFGTYAMGWYRQAPGKERELVAGISRRSGSTIYADSVKGRFTISRDNAKNTVYLQMNSLKPEDTAVYYCNVDRPDATWSWWEYGYWGQGTQVTVSS”: “high polyreactivity”; for “QVQLVESGGGLVQAGGSLRLSCAASGFTFYWYAMGWYRQAPGKEREFVAAIDQSGGSTYYADSVKGRFTISRDNAKNTVYLQMNSLKPEDTAVYYCAKLYTIGYDYWGQGTQVTVSS”: “low polyreactivity”.
As to “QVQLVESGGVLVQAGGSLRLSCAASGSTSDCYDMGWYRQAPGKEWELVAAISTGDGITYYADSVKGRFTISRDNAKNTVYLHMNRLKPEDTAVYYCAAEVELSGGSDYWGQGTQVTVSS”, the “polyreactivity (PSR sort gate)” value was “low polyreactivity”.
The same measure for “QVQLVESGGGLVQAGGSLRLSCAASGRIFQGYAMGWYRQAPGKERELVAAISYRGASTYYADSVKGRFTISRDNAKNTVYLQMNSLKPEDTAVYYCAKVTPTSTRGHDYWGQGTQVTVSS”: “low polyreactivity”; for “QVQLVESGGGLVQAGGSLRISCAASGFTIAYYAMGWYRQAPGKERQKVASISSGDSTHYADSVKGRFTISRDNAKNTVYLQMNSLKPEDTAVYYCNADTRTFYYAAKTGFTFLYGYWGQGTQVTVSS”: “high polyreactivity”.
The same measure for “QVQLVESGGGLVQAGGSLRLSCAASGITFGRNAMGWYRQAPGKERELVAAISRGGSTNYADSVKGRFTISRDNAKNTVYLQMNSLKPEDTAVYYCNARSWPHGSWIPIHRRYGYWGQGTQVTVSS”: “high polyreactivity”.
As for “QVQLVESGGGLVQAGGSLRLSCAASGITFYGYDMGWFRQAPGKERELVASSTYYADSVKGRFTISRDNAKNTVYLQMNSLKPEDTAVYYCITVYYQWVTYGYWGQGTQVTVSS”, the entry is “high polyreactivity”; as for “QVQLVDSGGGLVQAGGRLRLSCAASGRTFRTNAMGWYRQAPGKERELVAAISRTGRTNYADSVKGRFTISRDNAKNTVYLQMNSLKPEDTAVYYCAADRVGWSGYRGDYWGQGTQVTVSS”, “high polyreactivity”.
With “QVQLVESGGVLVQAGGSLRLSCAASGRIFPSYDMGWYRQAPAKERELVDTISTRGDSTYYADSVKGRFTISRDNAKNTVYLQMNSQKPEDTAVYYCAAERPFWEYDYWGQGTQVTVSS”, the “polyreactivity (PSR sort gate)” value is “low polyreactivity”.
As for “QVQLVESGGGLVQAGVSLRLSCASSGIIFPDYAMGWYRQAPGKERELVAAITRSGGRTFYADSVKGRFTISRDTAKNSVYLQMKSLKPEDTAVYYCAVSYSYLYYYWGQGTQVTVSS”, the entry is “high polyreactivity”; as for “QVQLVESGGGLVQAGGSLRLSCAASGNIFAWYAMGWYRQAPGKERELVADISSRGGSTYYADSVKGRFTISRDNAKITVYLQMNSLKPEDSAVYYCAAVWYWTQDYDYWGLGTQVTVSS”, “low polyreactivity”.
The same measure for “QVQLVESGGGLVEAGGSLRLSCAASGSIFDDYAMGWYRQAPGEERELVAAITWNGGSTYADSVKGRFTISRDNAKNTVYFQMNSLKPEDTAVYYSAADYFVYWYYGYGYWGQGTQVTVSS”: “low polyreactivity”; for “QVQHVESGVGLVQAGGSLRLSCAASGFIFTINAMGWYRQAPGKERELVAAISWSGGRTYYADSVKGRFTISRDNAKNTVYLQMNSLNPEDTAVYYCNAYPATQYDYESWGQGTQGTVSS”: “high polyreactivity”.
